Among the targets are CCHF 11E7b peptide (Crimean-Congo hemorrhagic fever virus, UniProt Q8JSZ3); CCHF 11E7c peptide (Crimean-Congo hemorrhagic fever virus, UniProt Q8JSZ3); CCHF 11E7a peptide (Crimean-Congo hemorrhagic fever virus, UniProt Q8JSZ3).
Assay in all cases: ELASA; […] (0.5 M NaCl, 10 mM Tris-HCl, 1 mM MgCl2, pH 7.5-7.6), 1 h, RT (~25 C); […]
Common to all, as to conditions: label: 5'-biotin

For data set [1], the target named is T1, CCHF Altamura Gn 611 peptide (Crimean-Congo hemorrhagic fever virus, UniProt Q8JSZ3).
T1 chain: TQEGRGHVKLSRGSE

This note sets out measurements from article PMC3517355.

B1: E7b-8a/10/16-19/23-25R (ssDNA)
DNA: ATCCGTCACACCTGCTCTTGACACGCGTACGGGTCCGGACATGTCATAACGGACTGGTGTTGGCTCCCGTAT
On to B1, for which the binding signal in the data set with CCHF 11E7b peptide stood at 2 A405.

B2: E7b-14R (ssDNA)
DNA: ATCCGTCACACCTGCTCTTGACGCGCGAACGGGTCCGGACACGTCATAACGGAATGGTGCTGGCTCCCGTAA
On to B2, for which the binding signal with CCHF 11E7b peptide turned out to be 1.9 A405.

B3: Gn6-15R (ssDNA)
DNA: ATCCGTCACACCTGCTCTGGGCCAGGTAAGAAGATGCGAGCTGTGTAATACATGTGGTGTTGGCTCCCGTAT
Turning to B3, the binding signal in data set [1] was 1.63 A405.

B4: E7b-1bR (ssDNA)
DNA: ATCCGTCACACCTGCTCTTTGACACGCGTACGGGTCCGGACATGTCATAACGGACTGGTGTTGGCTCCCGTAT
The molecule B4 came in with a binding signal with CCHF 11E7b peptide of 2.07 A405.

B5: Gn6-25R (ssDNA)
DNA: ATCCGTCACACCTGCTCTACAGTTAGAGCTTGCCGTATGCCTTTGTTAACATAATGGTGTTGGCTCCCGTAT
B5 returned a binding signal in data set [1] of 1.94 A405.

B6: E7c-23/25R (ssDNA)
DNA: ATCCGTCACACCTGCTCTACAGTTAGAGCTTGCCGTATGCCTTTGTTAACATAATGGTGTTGGCTCCCGTAT
B6: the binding signal in the data set with CCHF 11E7c peptide turned out to be 2.12 A405.

B7: E7a-23F (ssDNA)
DNA: ATACGGGAGCCAACACCATGTCAGGACCTCCATCGCCCGGGCCCGCCGCCGCTGAGAGCAGGTGTGAC
For the molecule B7, the binding signal with CCHF 11E7a peptide came out at 2.23 A405.

B8: E7a-11R (ssDNA)
DNA: ATCCGTCACACCTGCTCTCGTGTGATATATATGGTAAGGGGGGTTAGTACTGCTGGTGTTGGCTCCCGTAT
Consider B8, for which, in the data set with CCHF 11E7a peptide, the binding signal is 2.07 A405.

B9: Gn6-16cR (ssDNA)
DNA: ATCCGTCACACCTGCTCTGTCGGGATGCGCCGGGCCGCCATGATTAGTGTGCTCTGGTGTTGGCTCCCGTAT
As for B9, the binding signal in data set [1] turned out to be 1.67 A405.

B10: Gn6-6R (ssDNA)
DNA: ATCCGTCACACCTGCTCTGCATATAAATTTTTAACAAGGGACTGGTAACTATCCTGGTGTTGGCTCCCGTAT
As to B10, in data set [1], the binding signal is 1.64 A405.

B11: Gn6-5F (ssDNA)
DNA: ATACGGGAGCCAACACCACGCCTTGTCTATTCTCTTAGTTTCCTGCTACTCCACAGAGCAGGTGTGACGGAT
For B11, in data set [1], the binding signal came to 1.75 A405.

B12: Gn6-18F (ssDNA)
DNA: ATACGGGAGCCAACACCATACGCACCCGCATTCGTTAGTGTGTACAGTATGTCCAGAGCAGGTGTGACGGAT
In data set [1], B12 yielded a binding signal of 1.86 A405.

B13: Gn6-30F (ssDNA)
DNA: ATACGGGAGCCAACACCATCCCACCGAATATCCGCTTTCCTCGTCCTCCTTTCAGAGCAGGTGTGACGGAT
Molecule B13 came in with a binding signal in data set [1] of 1.75 A405.

B14: E7b-5R (ssDNA)
DNA: ATCCGTCACACCTGCTCTTGGGCATCAGCGGGCGATGCATGCGATAAATTAGTGTGGTGTTGGCTCCCGTAT
With B14, in the data set with CCHF 11E7b peptide, the binding signal is 1.86 A405.

B15: E7a-20R (ssDNA)
DNA: ATCCGTCACACCTGCTCTGGTTAAACGATATGGGGCCTGCCGTTATAACTGCGTGGTGTTGGCTCCCGTAT
For the molecule B15, the binding signal with CCHF 11E7a peptide was determined as 2.04 A405.

B16: E7a-33F (ssDNA)
DNA: ATACGGGAGCCAACACCACACACAGAGCGCCATGGACTCAGTCAGATGTGATGTAGAGCAGGTGTGACGGAT
With B16, the binding signal in the data set with CCHF 11E7a peptide came to 2.07 A405.

B17: E7a-29F (ssDNA)
DNA: ATACGGCAGCCAACACCACACACATAGCGCTTTGTATTCAGCCGGATGTGATGTAGAGCAGGTGTGACGGAT
Consider B17, for which the binding signal in the data set with CCHF 11E7a peptide is 2.06 A405.

B18: E7a-20F (ssDNA)
DNA: ATACGGGAGCCAACACCACGCAGTTATAACGGCAGGCCCCATATCGTTTAACCAGAGCAGGTGTGACGGAT
Take B18: in the data set with CCHF 11E7a peptide, the binding signal came to 2.02 A405.

B19: E7a-5R (ssDNA)
DNA: ATCCGTCACACCTGCTCTTGACACGCGTACGGGGTCCGGACATGTCATAACGGACTGGTGTTGGCTCCCGTAT
In the case of B19, the binding signal with CCHF 11E7a peptide was 2.08 A405.

B20: E7b-1bF (ssDNA)
DNA: ATACGGGAGCCAACACCAGTCCGTTATGACATGTCCGGACCCGTACGCGTGTCAAAGAGCAGGTGTGACGGAT
Turning to B20, the binding signal with CCHF 11E7b peptide was determined as 1.88 A405.

B21: E7a-18F (ssDNA)
DNA: ATACGGGAGCCAACACCAACAGATGGATAAGGGGGAAACTGCCCATTCGGTTAGTAGAGCAGGTGTGACGGAT
The molecule B21 registered a binding signal in the data set with CCHF 11E7a peptide of 2.08 A405.

B22: Gn6-17F (ssDNA)
DNA: ATACGGGAGCCAACACCAAACTAGACAACCGCCCTTATACACACTGTACCAGTAGAGCAGGTGTGACGGAT
Turning to B22, in data set [1], the binding signal came out at 1.82 A405.

B23: E7a-8R (ssDNA)
DNA: ATCCGTCACACCTGCTCTCGCTGAAGCAAGACATTATCGGGACATTGCCGTGATGGTGTTGGCTCCCGTAT
In the case of B23, the binding signal with CCHF 11E7a peptide amounted to 2.04 A405.

B24: E7b-20/21R (ssDNA)
DNA: ATCCGTCACACCTGCTCTCGCTGAAGCAAGACATTATCGGGACATTGCCGTGATGGTGTTGGCTCCCGTAT
In the case of B24, in the data set with CCHF 11E7b peptide, the binding signal came out at 1.78 A405.

B25: Gn6-7bR (ssDNA)
DNA: ATCCGTCACACCTGCTCTCACATACTGGTCAGTCTCTATCGAGGCGGGCATTGGTGTTGGCTCCCGTAT
As for B25, in data set [1], the binding signal turned out to be 1.69 A405.

B26: E7b-1aR (ssDNA)
DNA: ATCCGTCACACCTGCTCTGGAAGCTTCATATTTTGAGGAATCCTCTTGAATTATGGTGTTGGCTCCCGTAT
B26 had a binding signal with CCHF 11E7b peptide of 2 A405.

B27: E7b-1aF (ssDNA)
DNA: ATACGGGAGCCAACACCATAATTCAAGAGGATTCCTCAAAATATGAAGCTTCCAGAGCAGGTGTGACGGAT
As to B27, the binding signal with CCHF 11E7b peptide is 1.83 A405.

B28: E7a-33R (ssDNA)
DNA: ATCCGTCACACCTGCTCTACATCACATCTGACTGAGTCCATGGCGCTCTGTGTGTGGTGTTGGCTCCCGTAT
Regarding B28, the binding signal with CCHF 11E7a peptide is 2.12 A405.

B29: E7b-6R (ssDNA)
DNA: ATCCGTCACACCTGCTCTTAACCTATTTGGGTCGCGTTCTCAAAATAACTTCTGTGGTGTTGGCTCCCGTAT
On to B29, for which the binding signal in the data set with CCHF 11E7b peptide came to 1.86 A405.

B30: E7b-3R (ssDNA)
DNA: ATCCGTCACACCTGCTCTAAAGGATCCTTCTTAGCATCACATTATGATAAGATATGGTGTTGGCTCCCGTAT
In the case of B30, the binding signal with CCHF 11E7b peptide was 1.94 A405.

B31: Gn6-16cF (ssDNA)
DNA: ATACGGGAGCCAACACCAGAGCACACTAATCATGGCGGCCCGGCGCATCCCGACAGAGCAGGTGTGACGGAT
Consider B31, for which the binding signal in data set [1] worked out at 1.9 A405.
